The source of these data is article PMC4726241, “Crystal structure and SUMO binding of Slx1-Slx4 complex” (Scientific Reports, 2016).

The Kd is the free concentration of one partner at which half of the binding sites on the other are occupied at equilibrium, for simple one-to-one binding.

The target of the experiment is T1, Slx1^RING+CT-Slx4^CCD complex (S. pombe, UniProt Q9P7M3 176-271; Q9P6M0 352-419).
T1 construct: Slx4, Schizosaccharomyces pombe, C-terminal conserved domain, residues 352-419; source: E. coli, co-expressed, purified by a procedure similar to that of Slx1^RING-Slx4^CCD; not shown: His6, N-terminal, cleaved
T1 sequence (looked up) 1: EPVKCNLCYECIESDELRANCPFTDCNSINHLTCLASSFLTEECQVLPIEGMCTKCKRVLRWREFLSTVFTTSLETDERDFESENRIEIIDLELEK
T1 sequence (looked up) 2: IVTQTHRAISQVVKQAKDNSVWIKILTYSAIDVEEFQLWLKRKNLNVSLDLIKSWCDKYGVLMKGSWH
The experiment in a line: ITC; 2.37 mM Pmt3 injected into 120 μM complex in the cell; 25 °C; 20 mM sodium phosphate pH 6.8, 100 mM NaCl; three repeats. As to conditions: both partners purified. On the technique in general: In ITC the heat of successive injections is recorded.

B1: mature Pmt3 (S. pombe SUMO), residues 1-111 (natural protein, UniProt O13351 1-111, looked up)
chain: MSESPSANISDADKSAITPTTGDTSQQDVKPSTEHINLKVVGQDNNEVFFKIKKTTEFSKLMKIYCARQGKSMNSLRFLVDGERIRPDQTPAELDMEDGDQIEAVLEQLGG
notes: Pmt3 (SUMO), Schizosaccharomyces pombe, mature form, residues 1-111; Uniformly 15N-labelled for the NMR titrations; source: E. coli, purified by a procedure similar to that of the complex
Take B1: the Kd was determined as 78.3 ± 9.9 µM.
